Numbering of substitutions follows the chain as printed. Values joined by “and” are separate entries in the source; they are usually repeats but may differ in a detail not shown here. Equal values may be shown once. Each block holds one binder with its values, some of them ahead of it.
How the values were obtained:
[1] = biological target: T1, recombinant soluble human MICA*008 antigen (human, UniProt Q29983 24-307); assay: BLI (Octet) sandwich binning on soluble MICA allele 8, row antibody captured; competitor (second antibody): MICA.2
T1 construct: also called huIMICA-his allele *008; recombinant soluble MICA (allele 8)
T1 chain: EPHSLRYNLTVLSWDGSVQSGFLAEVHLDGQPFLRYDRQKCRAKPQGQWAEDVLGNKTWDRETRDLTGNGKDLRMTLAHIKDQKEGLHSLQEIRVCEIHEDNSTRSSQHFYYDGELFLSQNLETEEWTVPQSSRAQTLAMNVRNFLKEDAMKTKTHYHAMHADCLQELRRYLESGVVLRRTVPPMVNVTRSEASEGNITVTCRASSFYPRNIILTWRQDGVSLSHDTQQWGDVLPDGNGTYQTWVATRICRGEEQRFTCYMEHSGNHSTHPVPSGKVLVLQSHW
Description: (§1) The binning experiments were performed on an Octet HTX instrument at 25° C. in HEPES buffered saline (10 mM HEPES pH 7.4, 150 mM NaCl, 0.05% v/v surfactant P20, and 1 mg/mL BSA). Anti-MICA/B antibodies and NKG2D-mFc were captured on anti-Fc tips and remaining capture sites were blocked with an excess of negative control IgG. Recombinant soluble MICA (allele 8) was bound and subsequent binding (“sandwiching”) of anti-MICA/B antibodies was tested.

[2] = biological target: T1, recombinant soluble human MICA*008 …; assay: BLI (Octet) sandwich binning on soluble MICA allele 8, row antibody captured; competitor (second antibody): MICA.38
Description: as §1

[3] = biological target: T1, recombinant soluble human MICA*008 …; assay: BLI (Octet) sandwich binning on soluble MICA allele 8, row antibody captured; competitor (second antibody): MICA.39
Description: as §1

[4] = biological target: T1, recombinant soluble human MICA*008 …; assay: BLI (Octet) sandwich binning on soluble MICA allele 8, row antibody captured; competitor (second antibody): MICA.40
Description: as §1

[5] = biological target: T1, recombinant soluble human MICA*008 …; assay: BLI (Octet) sandwich binning on soluble MICA allele 8, row antibody captured; competitor (second antibody): MICA.36
Description: as §1

[6] = biological target: T2, recombinant soluble human MICA*009 antigen (human, UniProt Q29983 24-307); assay: SPR (Biacore T200, 37 C), antibody captured on anti-human Fc, antigen 500 and 50 nM
T2 construct: also called huIMICA-his allele *009
T2 chain: T1 chain with G175S, I213T, R251Q
Description: (§2) Anti-MICA/B antibodies were captured to α-human Fc surfaces. MICA allele antigens were injected at high and low nanomolar concentrations (500 nM and 50 nM, except indicated otherwise). The results for antibodies MICA.36 and MICA.38 (MICA.2 with a Ser inserted between residues 95 and 96 in the light chain) are shown in Table 2 below.

[7] = biological target: T3, recombinant soluble human MICA*004 antigen (human, UniProt Q29983 24-307); assay: as above
T3 construct: also called huIMICA-his allele *004
T3 chain: T1 chain with L122V, G175S, T181R, I213T, T215S, W216T, R251Q
Description: as §2

[8] = biological target: T1, recombinant soluble human MICA*008 …; assay: as above
Description: as §2

[9] = biological target: T4, recombinant soluble human MICA*002 antigen (human, UniProt Q29983 24-307); assay: as above
T4 construct: also called huIMICA-his allele *002
T4 chain: T1 chain with W14G, Y36C, V129M, E173K, S206G, R210W, I213T, T215S, R251Q
Description: as §2

[10] = biological target: T2, recombinant soluble human MICA*009 …; assay: SPR (Biacore 3000), antibody captured on Protein G chip, huMICA-his analyte
Description: (§3) Kinetics and affinity of anti-MICA/B antibodies MICA.2, 19G6, 16A5, and 71C2 towards human MICA alleles (huIMICA-his allele *002, *004, *008, and *009) were also determined on a BIACORE 3000® instrument using the following conditions: [0571] Running Buffer: HES-EP running buffer [0572] Chip: CM5 Protein G Chip Fc1: Blank. Fc2-4: ˜200Rus [0573] Ab: 5 ug/mL, 10 uL @ 10 uL/min [0574] Ag binding: 5 min association, 7 min dissociation @ 25 uL/min, [0575] Regeneration: Glycine 1.7, 10 uL @ 100 uL/min followed by 60s wash by HES-EP

[11] = biological target: T3, recombinant soluble human MICA*004 …; assay: as above
Description: as §3

[12] = biological target: T1, recombinant soluble human MICA*008 …; assay: as above
Description: as §3

[13] = biological target: T4, recombinant soluble human MICA*002 …; assay: as above
Description: as §3

[14] = biological target: T2, recombinant soluble human MICA*009 …; assay: SPR (Biacore 3000), antibody captured on Protein G chip, huMICA-his analyte; power of ten not given
Description: as §3

[15] = biological target: T3, recombinant soluble human MICA*004 …; assay: as above
Description: as §3

[16] = biological target: T1, recombinant soluble human MICA*008 …; assay: as above
Description: as §3

[17] = biological target: T4, recombinant soluble human MICA*002 …; assay: as above
Description: as §3

[18] = biological target: T5, human MICB expressed on transduced cells (human, UniProt Q29980 23-382); assay: flow cytometry, transfected CHO cells
T5 construct: also called MICB*005
T5 chain: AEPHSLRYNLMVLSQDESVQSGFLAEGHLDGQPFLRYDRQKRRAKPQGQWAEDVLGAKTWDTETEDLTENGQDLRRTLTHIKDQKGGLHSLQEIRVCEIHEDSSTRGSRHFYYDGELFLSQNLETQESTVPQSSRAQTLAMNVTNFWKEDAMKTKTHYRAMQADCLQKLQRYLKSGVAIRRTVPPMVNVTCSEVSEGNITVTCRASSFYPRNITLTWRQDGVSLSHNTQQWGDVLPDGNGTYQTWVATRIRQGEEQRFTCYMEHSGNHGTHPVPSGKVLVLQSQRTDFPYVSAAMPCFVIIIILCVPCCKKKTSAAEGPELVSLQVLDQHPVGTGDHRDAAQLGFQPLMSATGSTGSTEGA

[19] = biological target: T6, cynomolgus monkey MICA/B clone #6 expressed on CHO cells (cynomolgus monkey); assay: flow cytometry, transfected CHO cells
T6 construct: whole, on cells; also called cyno#6; CHO-cyno MICA clone #6

[20] = biological target: T7, cynomolgus monkey MICA/B clone #4 expressed on CHO cells (cynomolgus monkey); assay: flow cytometry, transfected CHO cells
T7 construct: whole, on cells; also called cyno#4; CHO-cyno MICA clone #4

simultaneous binding (0 = no, 1 = yes) [1]: 0
simultaneous binding (0 = no, 1 = yes) [2]: 0
simultaneous binding (0 = no, 1 = yes) [3]: 0
simultaneous binding (0 = no, 1 = yes) [4]: 0
simultaneous binding (0 = no, 1 = yes) [5]: 1
Kd [6]: 126 nM
koff [6]: 0.0502 s⁻¹
kon [6]: 397000 M⁻¹ s⁻¹
Kd [7]: 104 nM
koff [7]: 0.0426 s⁻¹
kon [7]: 410000 M⁻¹ s⁻¹
Kd [8]: 130 nM
koff [8]: 0.078 s⁻¹
kon [8]: 600000 M⁻¹ s⁻¹
Kd [9]: 123 nM
koff [9]: 0.127 s⁻¹
kon [9]: 1.03e+06 M⁻¹ s⁻¹
B1: MICA.38 (antibody, V domains shown)
VH: EVQLVESGGGLVQPGGSLRLSCAASGFTFSTYSMNWVRQAPGKGLEWVSYISYRSRTIYYADSVKGRFTISRDNARNSLYLQMNSLRDEDTAVYYCARWGYGSGGFDYWGQGTLVTVSS
VL: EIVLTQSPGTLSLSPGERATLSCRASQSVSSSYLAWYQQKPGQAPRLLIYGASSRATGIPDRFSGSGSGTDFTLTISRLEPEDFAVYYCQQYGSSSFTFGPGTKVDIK
notes: MICA.2 with a Ser inserted between residues 95 and 96 in the light chain; also called MICA.38_3F5_S95k

Kd [10]: 12.9 nM
Kd [11]: 6.89 nM
Kd [12]: 4.55 nM
Kd [13]: 147 nM
koff [14]: 2.15 s⁻¹
koff [15]: 1.72 s⁻¹
koff [16]: 1.72 s⁻¹
koff [17]: 0.0104 s⁻¹
EC50 [18]: 8.16 nM and 21.6 nM
EC50 [19]: 9.26 nM and 13.8 nM
EC50 [20]: 0.856 nM and 2.38 nM
B2: 16A5 (antibody, V domains shown)
VH: QVQLVESGGDVVQPGRSLRLSCAASGFTFSNYNIHWVRQAPGKGLEWVAVIRYDGINKYYADSVKGRFIISRDNSKNTLYLQMNSLRAEDTAVYYCASGPPDAFNIWGQGTMVTVSS
VL: AIQLTQSPSSLSASVGDRVTITCRASQGISSALAWYQQKPGKVPKSLIYDASSLESGVPSRFSGSGSGTDFTLTISSLQPEDFATYYCQQFNSYPITFGQGTRLEIK
notes: Hybridoma antibody; #1 and #2 are two hybridoma lines from the same clone; also called 16A5 (#1); 16A5 (#2)

Reference: patent US20220281980A1 (Bristol-Myers Squibb, published 2022)
